No end group written: not given here.
T1: biotinylated DAE peptide (immobilized Aβ peptide) (human, UniProt P05067 672-681, limits assumed, also: biotinylated, site not given here)
T1 construct: domain: Aβ peptide (bio-DAE peptide; bio-DAE10); Immobilized on streptavidin biosensor chips for BIAcore; also called bio-DAE peptide; bio-DAE10
T1 peptide (looked up): DAEFRHDSGY


How the values were obtained:
[1] = target: T2, synthetic Aβ1-42 (aggregated in the ELISAs) (human, UniProt P05067 672-713); assay: competitive Aβ1-42 ELISA; competitor: biotin conjugated m12A11Cγ2a at a fixed concentration
T2 construct: range 672-713; also called aggregated Aβ1-42; aggregated synthetic Aβ1-42

[2] = target: T1, biotinylated DAE peptide (immobilized …); assay: BIAcore (SPR), biotinylated DAE peptide on streptavidin chip, antibody in solution; bivalent model, global analysis
[3] = target: T2, synthetic Aβ1-42 (aggregated in the …); assay: competitive Aβ1-42 ELISA, competitor biotin conjugated m12A11Cγ2a (FIG. 12)
[4] = target: T2, synthetic Aβ1-42 (aggregated in the …); assay: Aβ 1-42 binding ELISA

Row | IC50 (read off the curve) [1] | Ka [2] | Kd [2] | koff [2] | kon [2] | IC50 fold against murine and chimeric 12A11 [3] | EC50 (read off the curve) [4] | Binder
1 | ~1 µg/mL | 4.29e+07 M⁻¹ | 23.3 nM | 0.00343 s⁻¹ | 147000 M⁻¹ s⁻¹ | ≤ 2 fold |  | humanized 12A11 version 1 (antibody, V domains shown, Variable domains only; also called h12A11v1; 12A11v1) VH: QVQLVESGGGVVQPGRSLRLSCAFSGFSLSTSGMSVGWIRQAPGKGLEWLAHIWWDDDKYYNPSLKSRLTISKDTSKNTVYLQMNSLRAEDTAVYYCARRTTTADYFAYWGQGTTVTVSS VL: DVVMTQSPLSLPVTPGEPASISCRSSQSIVHSNGNTYLEWYLQKPGQSPQLLIYKVSNRFSGVPDRFSGSGSGTDFTLKISRVEAEDVGVYYCFQSSHVPLTFGQGTKLEIK
2 |  |  |  |  |  |  | ~0.04 µg/mL | humanized 3D6 (antibody, V domains shown) VH: EVQLVESGGGLVQPGGSLRLSCAGSGFTFSNYGMSWVRQAPGKGLEWVASIRSGGGRTYYSDNVKGRFTISRENAKNSLYLQMNSLRAEDTAVYYCVRYDHYSGSSDYWGQGTLVTVSS VL: DVVMTQSPLSLPVTLGQPASISCKSSQSLLDSDGKTYLNWLQQRPGQSPRRLIYLVSKLDSGVPDRFSGSGSGTDFTLKISRVEAEDVGVYYCWQGTHFPRTFGGGTKVEIKR
